For one assay, the system named is human adult kidney cells. Description: qRT-PCR after Wnt antagonists DKK1/sFRP1 with or without VPA. To be noted: DKK1 3 μg/ml or sFRP1 7 μg/ml 72 h; for Osr1 expression, Wnt antagonist combined with VPA / Six2 expression, Wnt antagonist combined with VPA: VPA 4 mM last 24 h; for Osr1 expression, Wnt antagonist alone: no VPA. Type of assay: cell-based. The protocol:
(§1) Cell Treatment: Cells were treated for 24 hours with growth medium supplemented with 1, 2, or 4 mM VPA (Sigma) or with H2O for control sample. Otherwise, cells were treated for 24 hours with growth medium supplemented with the combination of 75 μM TSA (Sigma) and 250 μM 5-AZA (Sigma) or with 100% Ethanol and Acetic Acid (Acetic Acid: H2O 1:1) for control sample. […] 24 hours prior to harvesting VPA at a concentration of 4 mM was added to the cell culture.
(§2) Quantitative Reverse Transcription-PCR: Total RNA from kidney tissue cultured cells was isolated using the TRIZOL reagent (Invitrogen) according to the manufacturer's protocols. cDNA synthesis was carried out using Verso kit (Thermo scientific) with Random primers. Quantitative RT PCR was performed using an ABI7900HT sequence detection system (Perkin-Elmer/Applied Biosystems) in the presence of SYBR green (SYBR green PCR kit; Qiagen). Each analysis reaction was performed in duplicates or triplicates. GapDH was used as an endogenous control throughout all experimental analyses. Analysis was performed using the −ΔΔCt method, which determines fold changes in gene expression relative to a comparator sample.
A general note: Quantitative PCR measures a nucleic acid by following its amplification.

The next assay has as its system human fetal kidney cells. Described as above. Type of assay: cell-based. The protocol:
as §1, §2

The mark [1] stands for this setting: fetal kidney cells, DKK1 3 μg/ml or sFRP1 7 μg/ml 72 h, VPA 4 mM last 24 h.
Setting [2] is: fetal kidney cells, DKK1 3 μg/ml or sFRP1 7 μg/ml 72 h, no VPA.

B1: sFRP1: Wnt pathway antagonist (R&D systems) (protein, UniProt Q8N474 32-314, looked up)
Secreted frizzled-related …: SEYDYVSFQSDIGPYQSGRFYTKPPQCVDIPADLRLCHNVGYKKMVLPNLLEHETMAEVKQQASSWVPLLNKNCHAGTQVFLCSLFAPVCLDRPIYPCRWLCEAVRDSCEPVMQFFGFYWPEMLKCDKFPEGDVCIAMTPPNATEASKPQGTTVCPPCDNELKSEAIIEHLCASEFALRMKIKEVKKENGDKKIVPKKKKPLKLGPIKKKDLKKLVLYLKNGADCPCHQLDNLSHHFLIMGRKVKSQYLLTAIHKWDKKNKEFKNFMKKMKNHECPTFQSVFK
Regarding B1, the “Osr1 expression, Wnt antagonist combined with VPA” value (“Osr1 expression … with VPA” below) with human adult kidney cells and in the assay with human fetal kidney cells (setting [1]) was “synergistic affect” each time. Moreover, the “Six2 expression, Wnt antagonist combined with VPA” value is given as “synergistic effect” with human adult kidney cells and “synergistic effect” in the assay on human fetal kidney cells (fetal kidney cells, sFRP1 7 μg/ml 72 h, VPA 4 mM last 24 h). For the same molecule, the “Osr1 expression, Wnt antagonist alone” value in the assay on human adult kidney cells and with human fetal kidney cells (setting [2]) was “little effect” each time. Further, the “Six2 expression, Wnt antagonist alone” value with human fetal kidney cells (FK cells, DKK1 3 μg/ml or sFRP1 7 μg/ml 72 h, no VPA) is “elevated Six2 levels”.

B2: DKK1: Wnt pathway antagonist (R&D systems) (protein, UniProt O94907 32-266, looked up)
Dickkopf-related protein 1: TLNSVLNSNAIKNLPPPLGGAAGHPGSAVSAAPGILYPGGNKYQTIDNYQPYPCAEDEECGTDEYCASPTRGGDAGVQICLACRKRRKRCMRHAMCCPGNYCKNGICVSSDQNHFRGEIEETITESFGNDHSTLDGYSRRTTLSSKMYHTKGQEGSVCLRSSDCASGLCCARHFWSKICKPVLKEGQVCTKHRRKGSHGLEIFQRCYCGEGLSCRIQKDHHQASNSSRLHTCQRH
Take B2: in the assay on human adult kidney cells, the “Osr1 expression … with VPA” value is reported as “synergistic affect”; the “Six2 expression, Wnt antagonist combined with VPA” value was “synergistic effect”; the “Osr1 expression, Wnt antagonist alone” value was “little effect”. In addition, the “Osr1 expression … with VPA” value with human fetal kidney cells (setting [1]) was “synergistic affect”. Moreover, the “Osr1 expression, Wnt antagonist alone” value in the assay with human fetal kidney cells (setting [2]) was “little effect”.

For the origin of these results see US9770469B2, “Methods of reprogramming renal cells” (Tel HaShomer Medical Research Infrastructure and Services …, priority 2009, dated 2017).
